Measurements reported in patent US20020081574.
Like-named read-outs stand apart in the source and are kept apart here.

Assays:
[1] = target: HCV NS3 full length (bacNS3-5B derived) (Hepatitis C virus strain H) (UniProt P27958)
[2] = target: HCV NS3 full length (bacNS3 derived) (Hepatitis C virus strain H) (UniProt P27958)
[3] = target: HCV NS3 full length (bacNS3-5B derived) (Hepatitis C virus strain H) (UniProt P27958); settings: Km for RNA substrate; helicase strand displacement, PIPES pH 6.5, MnCl2, 37 C

Sequence of HCV NS3 full length (bacNS3-5B derived) (Hepatitis C virus strain H) (P27958 1027-1657): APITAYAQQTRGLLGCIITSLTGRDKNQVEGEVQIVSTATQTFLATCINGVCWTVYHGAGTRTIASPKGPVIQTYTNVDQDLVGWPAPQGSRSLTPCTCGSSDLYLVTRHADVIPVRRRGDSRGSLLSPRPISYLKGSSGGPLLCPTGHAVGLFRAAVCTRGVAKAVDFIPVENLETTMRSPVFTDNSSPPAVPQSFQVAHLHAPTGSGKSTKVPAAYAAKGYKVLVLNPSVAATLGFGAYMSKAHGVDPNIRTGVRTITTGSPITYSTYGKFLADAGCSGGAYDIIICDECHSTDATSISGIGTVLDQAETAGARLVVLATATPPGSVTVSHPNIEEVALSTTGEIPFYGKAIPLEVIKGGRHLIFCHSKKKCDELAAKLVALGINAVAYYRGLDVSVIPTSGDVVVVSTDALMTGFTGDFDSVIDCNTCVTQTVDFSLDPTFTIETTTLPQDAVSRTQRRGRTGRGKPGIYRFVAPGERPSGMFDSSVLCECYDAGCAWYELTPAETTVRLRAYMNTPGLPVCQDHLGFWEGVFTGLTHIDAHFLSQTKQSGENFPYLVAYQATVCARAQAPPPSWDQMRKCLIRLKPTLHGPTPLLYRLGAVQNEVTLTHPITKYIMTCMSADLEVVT
Sequence of HCV NS3 full length (bacNS3 derived) (Hepatitis C virus strain H) (P27958 1027-1657): as above

Substance	activity ([1]; ATPase rate with poly(U), 23 without)	activity ([2]; ATPase rate with poly(U), 0 without)	activity [3]	activity ([1]; helicase catalytic rate)	activity ([2]; helicase catalytic rate)
poly(U)	1050 min⁻¹	659 min⁻¹	–	–	–
standard RNA helicase substrate (3' and 5' single strand regions)	–	–	0.5 nM	0.01 min⁻¹	0.003 min⁻¹
